Test results reported in IntAct's records for PubMed 21471201.

B1: NAD-dependent protein deacetylase sirtuin-1 (Homo sapiens), Q96EB6 (parent)
chain: MADEAALALQPGGSPSAAGADREAASSPAGEPLRKRPRRDGPGLERSPGEPGGAAPEREVPAAARGCPGAAAAALWREAEAEAAAAGGEQEAQATAAAGEGDNGPGLQGPSREPPLADNLYDEDDDDEGEEEEEAAAAAIGYRDNLLFGDEIITNGFHSCESDEEDRASHASSSDWTPRPRIGPYTFVQQHLMIGTDPRTILKDLLPETIPPPELDDMTLWQIVINILSEPPKRKKRKDINTIEDAVKLLQECKKIIVLTGAGVSVSCGIPDFRSRDGIYARLAVDFPDLPDPQAMFDIEYFRKDPRPFFKFAKEIYPGQFQPSLCHKFIALSDKEGKLLRNYTQNIDTLEQVAGIQRIIQCHGSFATASCLICKYKVDCEAVRGDIFNQVVPRCPRCPADEPLAIMKPEIVFFGENLPEQFHRAMKYDKDEVDLLIVIGSSLKVRPVALIPSSIPHEVPQILINREPLPHLHFDVELLGDCDVIINELCHRLGGEYAKLCCNPVKLSEITEKPPRTQKELAYLSELPPTPLHVSEDSSSPERTSPPDSSVIVTLLDQAAKSNDDLDVSESKGCMEEKPQEVQTSRNVESIAEQMENPDLKNVGSSTGEKNERTSVAGTVRKCWPNRVAKEQISRRLDGNQYLFLPPNRYIFHGAEVYSDSEDDVLSSSSCGSNSDSGTCQSPSLEEPMEDESEIEEFYNGLEDEPDVPERAGGAGFGTDGDDQEAINEAISVKQEVTDMNYPSNKS

Variants of: B1
Conditions: with rptor_human RPTOR

effect of a mutation on the interaction	Variant
decreasing interaction	F474A
